From patent publication US20260209318A1 (NATIONAL UNIVERSITY OF SINGAPORE, published 2026)

Columns and labels:
BQ.1.1 spike protein = BQ.1.1 spike protein (SARS-CoV-2 variant BQ.1.1, UniProt P0DTC2 14-1273); experiment: cell-based or functional assay
XBB.1 spike protein = XBB.1 spike protein (SARS-CoV-2 variant XBB.1, UniProt P0DTC2 14-1273); experiment: cell-based or functional assay

Binder | IC50 (pVNT) (BQ.1.1 spike protein) | further results
Ab40 (10x-L8N-c32) (antibody, V domains shown) VH: QVQLQESGPRLVKPSETLSLTCTVSGGSISSYYWTWIRQPPGKGLEWIGYISYSGSTNYNPSLRSRVTMSVDTSKNQFSLDLNSVTAADTAVYYCATDGGGFYPGYFPHWGQGTLVTVSS VL: DIQMTQSPSSLSASVGDRVTITCRASQSISDYVNWYQQKPGRAPRLLIYAPSTLQSGVPSRFSGSGSGTDFTLTISNLQPEDFGTYFCQQSYSTPPYTFGQGTKVEMK | ≤ 550 ng/ml | –
Ab52 (10x-L8N-c89) (antibody, V domains shown) VH: QVQLVQSGSEVKKPGSSVKVSCRASGDTFSSHSLSWVRQAPGQGLEWMGRIVPMFGITNYAQNFQGRVTFTADKSTSTAYMELSSLRSEDTAVYYCARAGTMITFGGLTDDGQLNWFDPWGQGTLVTVSS VL: DVVLTQSPLSLSVTLGQPASISCRSSQSLEYSDGDTYLNWFHQRPGQSPRRLIYKVSNRDSGVPDRFSGSGAGTDFTLKISKVEAEDVGVYYCMQGTNWPPNFGPGTKVDIK | ≤ 550 ng/ml | –
Ab1 (B11.2) (antibody, V domains shown) VH: EVQLVESGGGLVQPGGSLRLSCAASEIIVSRNYMTWVRQAPGKGLEWLAVLYAGGSSFYADSVKGRFTISRDNSKNTLFLQMNSLRAEDTAVYYCARDLSLSGGFDYWGQGALVTVSS VL: DIQLTQSPSFLSASVGDRVTITCRASQGISNYLAWYQQNPGKAPKLLIYAVSTLHSGVPSRFSGSGSGTEFTLTISSLQPEDFATYYCQHLNTDSCTFGQGTKLEIK | ≤ 300 ng/ml | concentration required to effectively neutralize (pVNT) (XBB.1 spike protein): 11.6 ng/ml; concentration required to effectively neutralize (pVNT) (BQ.1.1 spike protein): 16.5 ng/ml
Ab41 (10x-L8N-c39) (antibody, V domains shown) VH: QVQLVQSGAEVKKPGASVKVSCKGSGYTFTDYGISWVRQAPGQGLEWMGWIRAYNGNTDYAQKFQGRVTMTRDTSTTTAYMELRSLRSDDTAVYFCALNLIAAAATPFDHWGQGTLVTVSS VL: EIVLTQSPGTLSLSRGERATLSCRASQSVSSSYLAWYQQKRGQAPRLLIYGATSRATGIPDRFSGSGSGTDFTLTISRLEPEDFAVYYCQHYGSSPPPFGGGTKVEIR | ≤ 550 ng/ml | –
Ab39 (10x-L8N-c30) (antibody, V domains shown) VH: QVQLVQSGAEVKKPGSSVKISCKASGDTSSSYTINWVRQAPGQGLEWMGRIIPMFNRANYARKFQGRVTMTADRSTDTAYMEVSSLTSDDTAVYYCARTWIEPHNWFDPWGQGTLVTVSS VL: EIVLRQSPGTLSLSPGERATLSCRASQSVSGNHLAWYQRKPGQAPRLLIYAASSRATGIPDRFSGSGSGTDFTLTINRLEPEDFAVFYCQQYGTSPPTFGGGTKVEIK | ≤ 550 ng/ml | –
Ab35 (10x-L8N-c20) (antibody, V domains shown) VH: QVQLQESGPGLVKPSETLSLTCTVSGDSIYSYSWTWIRQPPGKGLEWIGQLYYNGSTSYNASLKSRVSISLDTSKNQFSLKLRFVTAADTAMYYCARVEYYSNYFDPWGQGTQVTVSS VL: EIVLTQSPATLSLSPGERATLSCRASQSVGSYLAWYQQKPGQAPRLLIYDASNRVPGIPARFSGSGSGTDFTLTISSLPPEDFAVYYCQQRSDWPPTFGGGTKVEIR | ≤ 550 ng/ml | –
Ab43 (10x-L8N-c42) (antibody, V domains shown) VH: EVQLVESGGGLVKPGGSLRLSCAASGFTFSRHTMNWVRQAPGKGLEWVSSIGGSTPLSFYAESVKGRFSISRDNAKSSLFLQMSSLRADDTAVYYCVRDSIASVTTLFDLWGRGTVVTVSS VL: DIQMTQSPSSLSASVGDRVTITCRASQTIRNYINWYQQRPGKAPRLLIYDASTLQSGVPSRFSGGGSGTDFTLTISSLEPEDFATYYCQQSYVSPPEDSFGQGTKLEIK | ≤ 550 ng/ml | –
Ab42 (10x-L8N-c41) (antibody, V domains shown) VH: EVQLLESGGGLVQPGGSLRLSCAGSGFTFSSYAMSWVRQAPGKGLEWVSSISSSGGLTFYADSVRGRSTISRDHSRNTLYLQMNSLRAEDTALYYCAREQGDSYDDYFDYWGQGTLVTVSS VL: DIQMTQSPSSLSASVGDRVTITCRASQGIRSSLAWYQQRPGKAPKLLLSAASILESGVPSRFSGSGSGTDYTLTINGLQPDDFATYYCQQYYVTPGITFGGGTKVEIR | ≤ 550 ng/ml | –
Ab27 (E12.2) (antibody, V domains shown) VH: EVQLVESGGGLVQPGGSLRLSCGASGITVSSNYMNWVRQAPGKGLEWVSTLYAGGSTFYADSVKGRFIISRDNSKNTLYLQMNSLRADDTAVYYCARDLVDYGMDVWGQGTTVTVSS VL: DIQLTQSPSSLSASVGDRVTITCRASQGISSYLAWYQQKPGKAPKLLIYAASTLQSGVPSRFSGSGSGTDFTLTISSLQPEDFATYYCQQLNSYSPFTFGPGTKVDIK | ≤ 550 ng/ml | –
Ab26 (G4.2) (antibody, V domains shown) VH: QVQLVQSGAEVKKPGSSVKVSCKASGGTFSSHTVSWVRQAPGQGLEWMGRIIPPFGIVNYAQKFQGRVTMTADESTSTAYMELSSLRSEDTAVYYCARSNVVVVTEAGWFDPWGQGTLVTVSS VL: DIQMTQSPSSVSASVGDRVSISCRASQDISSSLAWYQQKPGQAPKVLIYDASTLQSGVPSRFSGSGSGTDFTLTISNLRPDDFATYFCQQAHSFPFTFGPGTKVDIR | ≤ 550 ng/ml | –
Ab46 (10x-L8N-c63) (antibody, V domains shown) VH: QVHLVQSGAEVKKPGSSVKVSCKASGGTFSSHTVSWVRQAPGQGLEWMGRIIPPFGIVNYAQKFQGRVTITADESTSTAYMELSSLSSEDTAVYYCARSNVVVVTEAGWFDPWGQGTLVTVSS VL: DIQMTQSPSSVSASVGDRVTITCRASQGISSSLAWYQQKPGKAPKVLIFDASTLQSGVPSRFSGSGSGTDFTLTISNLRPEDFATYYCQQAHSFPFTFGPGTKVDIK | ≤ 550 ng/ml | –
Ab50 (10x-L8N-c84) (antibody, V domains shown) VH: QVQLVQSGAAVKKPGSSVKVSCEASGGTFSRFAVNWVRQAPGQGLEWMGRIIPLFAIANYPQRFQGRVIMSADRSTNITYMELSRLTSEDTAVYYCAREIDTVIDPAMDVFHGMEVWGQGTTVIVSS VL: QSVLTQPPSASGTPGQRVTISCSGRSSNIGSNYVHWYQQLPGTAPKLLIYRNNQRPSGVPDRFSGSKSGTSASLAISGLRSEDEADYYCAGWDDSLSGAVFGGGTKLSVL | ≤ 550 ng/ml | –
Ab32 (10x-L8N-c12) (antibody, V domains shown) VH: EVQLVESGGGLVQPGGSLRVTCVASGFAVRTNFMTWVRQAPGKGLQCVSVIYGDGSTYYADSVKGRFSISRDNSKNTVYLQMNSLSAEDTAVYYCAREVSHAFDLWGPGTMVTVSS VL: DIQLTQSPSTLSASLGDRVTITCRASQSISGWLAWYQQKPGRAPQLLIYKASLLETGVPSRFSGSGSGTVFTLTISSLQPDDFATYYCQQYDTYSPYTFGQGTKLEIK | ≤ 550 ng/ml | –
Ab48 (10x-L8N-c72) (antibody, V domains shown) VH: QVQLQQWGAGLLKPSETLSLTCTVYGGSISGYYWNWIRQPPGKGLEWIGEIDHSGNTNYNSSLKSRITIALDTSKKEISLKVTSVTAADTAVYYCARLDYYHYSQDAWGQGTTVTVSS VL: EIVLTQSPDFQSVTPKERVTITCRASQSIGASLHWYQLKPNQSPKLLIKYASQSISGVPSRFSGSGSGTDFTLTISSLEAEDAATYYCLQSSNLYSFGQGTKLEIK | ≤ 550 ng/ml | –
Ab51 (10x-L8N-c86) (antibody, V domains shown) VH: EVQLVESGGGLVKPGESLRLSCAASGFTFSSSSLNWVRQAPGKGLEWVSSISISGDYTYYADSVKGRFTISRDNGKNSVYLQMDRLRVEDTAMYYCARDRFGFYDMLAHSYNVGFFQSWGQGTLVAVSS VL: DIRMTQSPSSLSASVGDSVTITCRASQDITNYLAWFQQKPGKAPKSLIYSASILQSGVPSKFSGSGSGTDFTLTISSLQPEDFATYYCQQYLTYPITFGQGTRLEIK | ≤ 550 ng/ml | –
Ab28 (10x-L8N-c1) (antibody, V domains shown) VH: QFQLVQSGAEVKKPGSSVKVSCRASGGSFTSHAISWVRQAPGQGFEWMGRIIPMFGIANYAPKFQGRVTMSADKFKDIVYMEVNSLTSEDTALYYCARSQPMTSVTTLWFDPWGQGTLVTVSS VL: EIVLTQSPGTLSLSPGERATLSCRASEPVGGSYLAWYQQKPGQAPRLLIHGASSRATGIPDRFSGSGSGTDFVLTISRLEPEDFAVYHCQQYASSPYTFGQGTKLEIK | ≤ 550 ng/ml | –
Ab47 (10x-L8N-c64) (antibody, V domains shown) VH: QVQLVQSGAEVKKPGSSVKVSCEASGDTFSRYAITWVRQAPGQGLEWMGRIIPMFGSANYAQKFQGRVSFTADKSTSTASMELSSLRSEDTAVYYCATSPYYSDSGGYYCDYWGQGSLVTVSS VL: DIQMTQSPSSLSASVGDRVTITCRASQGISNYLAWYQQKPGKAPKLLLYGASRLQSGVPSRFSGSGSGTDYTLTISSLQPEDFATFYCQQYYSAPRTFGQGTKVEIK | ≤ 550 ng/ml | –
Ab49 (10x-L8N-c73) (antibody, V domains shown) VH: QVQLVQSGAEVKKPGSSVKVSCKASGGTFTTYAIAWVRQAPGQGLEWMGRIIPTLDNPNYAQKFQGRVSITADKSTGTSYMELRSLRSDDTAVYYCAHVSYDSSGPHLSWYFNLWGRGTLITVSS VL: DIQMTQSPSTLSASVGDRVTITCRASQSIPSRLAWYQHKPGEAPKLLIYEASTLESGVPSRFSGSGSGTEFTLTITSLQPDDFATYFCQGWNAFGGGTKVEIK | ≤ 550 ng/ml | –
Ab44 (10x-L8N-c53) (antibody, V domains shown) VH: QVQLQQSGAEVKKPGSSVKVSCESSGGTFTSHAINWVRQAPGQRLEWMGRIIPVLGVAAYAQKFQGRVTLTADKFTSTAYMELSSLRSEDTAVYFCARSAYNYDSSGYHFDYWGQGTLVLVSS VL: DIQMTQSPSTLSASVGDRVTITCRASQSISNWLAWYQQKPGTAPKLLIFKASTLQSGVPSRFSGSGSGTEFTLTISSLQPDDFATYHCQQYHSSRSFGQGTKVEIK | ≤ 550 ng/ml | –
Ab5 (10x-L8N-c25) (antibody, V domains shown) VH: DFQLVESGGGLVRPGGSLRLSCVASEITVSRNYMSWIRQAPGKGLEWVSIIYPGGTTYYADSVKGRFTISRDNSKNTMYLQLNSLRPEDTAIYYCVRPIVRGGGGMDVWGQGTTVTVSS VL: DIQMTQSPSSLSASVGDRVTITCQASQDINKYLNWYQQKPGKAPKLLIYDATNLEPGVPSRFSGSGSGTDFVFTITSLQPEDIATYYCQYYDDVPYTFGQGTQLEIK | ≤ 300 ng/ml | concentration required to effectively neutralize (pVNT) (XBB.1 spike protein): 40.8 ng/ml; times less than the concentration of E7 (XBB.1 spike protein): ~8 times; concentration required to effectively neutralize (pVNT) (BQ.1.1 spike protein): 57.5 ng/ml; times less than the concentration of E7 (BQ.1.1 spike protein): ~10 times
